Where a chain is given by its changes, count along the chain named.
T1: MERS-CoV spike antigens (bead panel) (MERS-CoV, UniProt K9N5Q8 18-1296)
T1 sequence: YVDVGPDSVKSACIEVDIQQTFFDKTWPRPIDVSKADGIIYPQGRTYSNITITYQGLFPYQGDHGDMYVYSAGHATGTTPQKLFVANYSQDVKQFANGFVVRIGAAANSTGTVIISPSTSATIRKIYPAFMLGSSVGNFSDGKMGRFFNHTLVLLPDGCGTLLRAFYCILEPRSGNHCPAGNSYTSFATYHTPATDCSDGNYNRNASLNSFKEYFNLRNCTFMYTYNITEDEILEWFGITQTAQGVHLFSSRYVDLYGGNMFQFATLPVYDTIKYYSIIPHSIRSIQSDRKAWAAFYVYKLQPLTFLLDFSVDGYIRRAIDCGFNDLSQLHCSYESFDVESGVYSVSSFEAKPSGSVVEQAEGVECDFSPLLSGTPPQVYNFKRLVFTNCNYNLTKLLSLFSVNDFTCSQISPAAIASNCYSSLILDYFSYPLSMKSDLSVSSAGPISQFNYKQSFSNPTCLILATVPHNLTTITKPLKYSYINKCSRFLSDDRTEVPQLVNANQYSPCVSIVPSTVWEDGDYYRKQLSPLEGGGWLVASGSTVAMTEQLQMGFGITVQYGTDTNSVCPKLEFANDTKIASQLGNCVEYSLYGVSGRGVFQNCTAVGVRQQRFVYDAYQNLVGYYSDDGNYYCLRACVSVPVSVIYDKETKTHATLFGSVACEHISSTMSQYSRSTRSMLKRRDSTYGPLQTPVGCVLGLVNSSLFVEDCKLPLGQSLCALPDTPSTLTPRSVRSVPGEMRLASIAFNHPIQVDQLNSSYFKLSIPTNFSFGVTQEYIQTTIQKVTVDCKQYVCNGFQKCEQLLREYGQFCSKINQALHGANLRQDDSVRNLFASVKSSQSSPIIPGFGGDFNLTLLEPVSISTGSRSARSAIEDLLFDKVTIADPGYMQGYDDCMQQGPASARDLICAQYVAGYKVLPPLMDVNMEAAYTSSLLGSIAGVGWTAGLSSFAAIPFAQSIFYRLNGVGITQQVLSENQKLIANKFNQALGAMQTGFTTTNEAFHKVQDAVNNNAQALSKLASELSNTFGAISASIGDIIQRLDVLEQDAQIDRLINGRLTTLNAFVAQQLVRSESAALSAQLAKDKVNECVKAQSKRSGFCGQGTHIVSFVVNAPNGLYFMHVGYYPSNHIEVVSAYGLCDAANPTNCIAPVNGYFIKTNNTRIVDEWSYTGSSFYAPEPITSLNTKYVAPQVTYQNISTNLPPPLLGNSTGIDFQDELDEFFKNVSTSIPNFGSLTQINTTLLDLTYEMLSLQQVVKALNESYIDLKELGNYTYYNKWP

B1: COV_1201 (antibody, V domains shown)
VH: QVQLVQSGAEVKKPGASMKVSCKASGYTFTGYYIHWVRQAPGQGLEWMGRINPNSGGTNYAQKFQGRVTMTRDTSISTAYMELSRLRSDDTAVYYCAREYYYVPYGMDVWGQGTTVTVSS
VL: QSALTQPASVSGSPGQSITISCTGTSSDVGGYNFVSWYQHHPGKAPKLMIYEVSNRPSGVSNRFSGSKSGNTASLTISGLQAEDEADYYCSSYTSSSTYVFGTGTKVTVL
notes: human IgG1
B2: COV_1149 (antibody, V domains shown)
VH: QVQLVESGGGVVQPGRSLRLSCAASGFTFSSYGMHWVRQAPGKGLEWVAVISYDGSNKYYADSVKGRFTISRDNSKNTLYLQMNSLRAEDTAVYYCAKTGGGYSYGLGNVWGQGTLVTVSS
VL: QSALTQPASVSGSPGQSITISCTGTSSDVGGYNYVSWYQQHPGKAPKLMIYDVSNRPSGVSNRFSGSKSGNTASLTISGLQAEDEADYYCSSYTSSSTLVVFGGGTKLTVLG
notes: human IgG1
B3: COV_2056 (SEQ ID NO:792/797) (antibody, V domains shown)
VH: EVQLVESGGGVVQPGRSLRLSCAASGFTFSIYGMHWVRQAPGKGLEWVALISYDGTNKYYADSVKGRFSISRDDSKNTLYLQMNSLRPEDTAVYYCAKVLMMGDSSGFSLGDAFDIWGQGTMVTVSS
VL: DIQMTQSPSSVSASVGDRVTITCRASQGISNWLAWYQQKPGKAPKLLIYAASSLQSGVPSRFSGSVSGTDFTLTISSLQPEDFATYYCQQANSFPLTFGGGTKVDIKR
B4: COV_2196 (antibody, V domains shown)
VH: QVQLVQSGAEVKKPGASVKVSCKVSGYTLIELSMHWVRQAPGKGLEWMGGFDPEDAKTIYAQKFQGRVTMTEDTSTDTAYMELSSLTFEDTAVYYCATTPAFMAAAGDFDYWGQGTLVTVSS
VL: QPVLTQPSSVSVSPGQTATITCSGDVLAKKYARWFQQKPGQAPMLVIYKDTERPSGIPERFSGSSSGTTVTLTINGAQVEDEADYYCYSAAAWVFGGGTKLTVL
notes: human IgG1
B5: COV_3053 (antibody, V domains shown)
VH: EVQLVESGGGLVQPGRSLRLSCTASGFTLGDYAMTWVRQAPGKGLEWLGIIRNKRYGETKQYAASVKGRFTFSRDDSKGIGYLQRLSLKIEDTGVYYCTREHIVRDDAFDVWGQGTTVTVSS
VL: DIVMTQSPDSLAVSLGERATINCKSSQSVLYSSNNKNYIAWYQQRPGQPPKLLIYWTSTRASGVPDRFSGSGSGTDFALTISSLQAEDVAVYYCQQYYTIPRTFGQGTKVEIK
notes: human IgG1
B6: COV_1118 (antibody, V domains shown)
VH: EVQLVESGGGLVKPGGSLRLSCAASGFSFSNYNMNWVRQAPGKGLEWVSYISSSSSYIYYADSVKGRFTISRDNAKNSLYLQMNSLRGEDTAVYSCAREASGAYYFDRSGYFDYWGQGTLVTVSP
VL: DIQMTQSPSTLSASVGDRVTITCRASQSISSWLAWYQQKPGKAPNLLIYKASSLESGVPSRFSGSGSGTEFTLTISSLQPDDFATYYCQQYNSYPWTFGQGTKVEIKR
notes: human IgG1
B7: COV_1136 (antibody, V domains shown)
VH: B6 VH with S28T, N31D, Y32C, Y50S, S54R, G88A
VL: DIQMTQSPSTLSASVGDRVTITCRASQSISSWLAWYQQKPGKAPNLLIYKASSLESGVPSRFSGSGSGTEFTLTISSLQPDDFATYYCQQYNTYPWTFGQGTKVEIKR
notes: human IgG1
B8: COV_1154 (antibody, V domains shown)
VH: B6 VH with S28R, N31D
VL: B7 VL with D81Y, T93S, T97A, I106M
notes: human IgG1
B9: COV_1145 (antibody, V domains shown)
VH: QVQLVESGGGVVQPGRSLRLSCAASGFTFSSYGMHWVRQAPGKGLEWVAVIWYDGSNKYYADSVKGRFTISRDNSKNTLYLQMNSLRVEDTAVYYCAREGQLGATGLDCWGQGTLVSVSS
VL: SYELTQPPSVSVSPGQTARITCSGDALPKKYAYWYQQKSGQAPVLVIYEDSKRPSGIPERFSGSSSGTMATLTISGAQVEDEADYYCYSTDNSGNHWVFGGGTKLTVLG
notes: human IgG1
B10: COV_1177 (antibody, V domains shown)
VH: QVQLVESGGGVVQPGRSLRLSCAASGFTFSSYGMHWVRQAPGKGLEWVAVIWYDGSNKYYADSVKGRFTISRDNSKNTLYLQMNSLRAEDTAVYYCARDPLGAVAGYFDYWGQGTLVTVSS
VL: SYVLTQPPSVSVAPGQTARITCGGNNIGSKSVHWYQQKPGQAPVLVVYDDSDRPSGIPERFSGSNSGNTATLTISRVEAGDEADYYCQVWDSSSDHHWVFGGGTKLTVLG
notes: human IgG1
B11: COV_1184 (antibody, V domains shown)
VH: QVQLQQWGAGLLKPSETLSLTCAVYGGSFSGYYWSWIRQPPGKGLEWIGEINHSGNTTYNPSLKSRVTISVDTSKNQFSLKLSSVTAADTAVYYCARGLVITYYYDSSGKPFDPWGQGTLVTVSS
VL: not shown
notes: human IgG1
B12: COV_2169 (antibody, V domains shown)
VH: EVQLVESGGGVVQPGRSLRLSCAASGFTFSRYAMHWVRQAPGKGLEWVAVISYEGSNKYYADSVKGRFTISRNNSNNTLSLQMNSLRPDDTAVYYCVRSGGHYFDAFDLWGQGTMVTVSS
VL: EIVLTQSPGTLSLSPGERATLSCRASQSVSRNYVAWYQQKPGQAPRLLIYGASSRATGIPDRFSGSGSGTDFTLTISRLEPEDFALYYCQQYGSSYTFGQGTKLEIKR
notes: human IgG1
B13: COV_2205 (antibody, V domains shown)
VH: EVQLVESGGGLVKPGGSLRLSCAASGFTFSDYYMIWIRQAPGEGLEWVSYISSRSSYTNYADSVKGRFTISRDNARNSLYLQMNSLRAEDTAVYYCARGQHDLLTGYYSWAYFDYWGQGTLVTVSS
VL: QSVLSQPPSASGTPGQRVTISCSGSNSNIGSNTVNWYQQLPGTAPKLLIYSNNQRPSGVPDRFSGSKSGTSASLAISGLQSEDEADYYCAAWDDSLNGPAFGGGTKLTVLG
notes: human IgG1
B14: COV_2215 (antibody, V domains shown)
VH: EVQLVESGGGLVKPGGSLRLSCAASGFTFSHAWMSWVRQAPGKGLEWVGRIKSKTDGGTADYAAPVKGRFTISRDDSKNTLYLQMNSLKTEDTAVYYCATIRYYYDSSAYLNDAFDIWGQGTMVTVSS
VL: B9 VL with N92S, W97R, G100A
notes: human IgG1
B15: COV_3069 (antibody, V domains shown)
VH: EVQLVESGGGLVKPGGSLRLSCAASGFTFGSYTMNWVRQAPGKGLEWVSSIDTTSSSIYYADSLKGRFAISRDSAKNSLYLQMNRLRAEDTAVYYCARGNGHSYDSSGYHYGMYFDYWGQGTLVTVSS
VL: B7 VL with S31R, N45K, K50E, A51V, S56N, G66R, T85I, P95S, W96R
notes: human IgG1
B16: COV_3129 (antibody, V domains shown)
VH: QVQLQQWGAGLLKPSDTLSLTCAANGGGSFSGYYLGYIRQSPGKGLEWIGEINHNGGTNYNPSLKSRVTISGDTSKNQFSLKLSSVTAADTAIYYCARSRDSSLGDAVWYEYWGQGTLITVSS
VL: EIVLTQSPATLSLSPGERATLSCRASQSVDIYLAWYQQRPGQAPRLLISDASKRATGVPARFSGSGSGTDFTLTINSLEPEDFAIYYCQQRRDWPINFGQGTRLEIKR
notes: human IgG1

What follows are binders tested against SARS-CoV-1 spike antigens (bead panel) (SARS-CoV-1, UniProt P59594 14-1195) (assay: multiplex bead assay).
B1: no binding.
B2: no binding.
B3: no binding.
B4: no binding.
B5: no binding.
B6: no binding.
B7: no binding.
B8: no binding.
B9: no binding.
B10: no binding.
B11: no binding.
B12: no binding.
B13: no binding.
B14: no binding.
B15: no binding.
B16: no binding.

These binders were tested against T1, MERS-CoV spike antigens (bead panel) (assay: multiplex bead assay).
B1: no binding.
B2: no binding.
B3: no binding.
B5: no binding.
B6: no binding.
B7: no binding.
B8: no binding.
B9: no binding.
B10: no binding.
B11: no binding.
B12: no binding.
B13: no binding.
B14: no binding.
B15: no binding.
B16: no binding.

These binders were tested against SARS-CoV-2 S on pseudovirions (Wuhan Hu-1 / IL1/2020, last 18 amino acids removed) (SARS-CoV-2, UniProt P0DTC2 14-1273) (assay: cell-based or functional assay).
With B1 the “Mean IC50, pSV neutralization” value was 0.09 µg/ml and the “Mean IC80, pSV neutralization” value was 0.3 µg/ml.
B2 was tested, and the “Mean IC50, pSV neutralization” value was at least 25 µg/ml and the “Mean IC80, pSV neutralization” value was at least 25 µg/ml.
B3 was tested, and the “Mean IC50, pSV neutralization” value was 7.46 µg/ml and the “Mean IC80, pSV neutralization” value was at least 25 µg/ml.
In the case of B4, the “Mean IC50, pSV neutralization” value is reported as 0.02 µg/ml and the “Mean IC80, pSV neutralization” value is reported as 23.4 µg/ml.

Source: US20240101645A1 (HENRY M JACKSON FOUNDATION FOR THE ADVANCEMENT OF MILITARY …, published 2024)
